Source: publication PMC11394972 (International Journal of Molecular Sciences, 2024)

B1: MazF-mt3 (tag-removed form used for crystallization) (enzyme)
chain: GPELMVISRAEIYWADLGPPSGSQPAKRRPVLVIQSDPYNASRLATVIAAVITSNTALAAMPGNVFLPATTTRLPRDSVVNVTAIVTLNKTDLTDRVGEVPASLMHEVDRGLRRVLDL
B2: MazE-mt3 (Leu46-Trp82) peptide (peptide)
peptide: LTGQIDRALESIHGTDEAEALAVANAYRVLETMDDEW

Experiments:
crystal structure = molecular target: the molecule itself; assay: crystal structure
[1] = molecular target: B1; assay: crystal structure; details: both partners purified

Binder	stoichiometry N (crystal structure) [subunits in the oligomer]	stoichiometry N [1]
B1	2	
B2		2 toxin chains per antitoxin chain
